Test [1] addresses cyclin D1 (human, UniProt P24385). Description: competition.
The target in test [2] is cyclin A (human, UniProt P20248). Description: competition, immobilised p21 peptide.

Square brackets hold non-standard residues; d marks the D form. Ends that are not written are not given here.

The text below walks through data of US20050153894 (published 2005).

Chain of cyclin D1 (P24385 whole entry): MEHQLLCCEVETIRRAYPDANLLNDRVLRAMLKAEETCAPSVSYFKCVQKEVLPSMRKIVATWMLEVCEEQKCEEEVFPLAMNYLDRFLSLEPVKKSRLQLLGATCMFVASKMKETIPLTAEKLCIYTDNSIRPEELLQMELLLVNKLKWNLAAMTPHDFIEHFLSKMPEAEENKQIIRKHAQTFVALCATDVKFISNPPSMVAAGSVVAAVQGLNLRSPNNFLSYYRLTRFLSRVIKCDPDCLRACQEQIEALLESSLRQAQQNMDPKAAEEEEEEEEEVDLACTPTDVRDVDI
Chain of cyclin A (P20248 whole entry): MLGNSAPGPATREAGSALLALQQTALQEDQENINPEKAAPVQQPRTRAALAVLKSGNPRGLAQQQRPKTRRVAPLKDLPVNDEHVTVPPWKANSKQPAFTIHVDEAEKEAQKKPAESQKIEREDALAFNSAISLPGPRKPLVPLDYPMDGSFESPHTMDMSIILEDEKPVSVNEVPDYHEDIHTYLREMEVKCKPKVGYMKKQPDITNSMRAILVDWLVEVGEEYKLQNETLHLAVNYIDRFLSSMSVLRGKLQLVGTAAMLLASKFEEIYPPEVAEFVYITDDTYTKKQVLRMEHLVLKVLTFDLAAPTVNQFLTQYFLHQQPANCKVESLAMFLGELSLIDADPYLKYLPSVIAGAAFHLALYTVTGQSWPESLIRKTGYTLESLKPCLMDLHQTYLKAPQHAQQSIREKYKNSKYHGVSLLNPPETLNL

On to SA[code U]RNLFG [p27 SAURNLFG], for which the IC50 (in general, the concentration needed to halve the response being measured) in test [1] was greater than 200 µM.

B1: GST-pRb(772-928) (protein)
chain: ASTRPPTLSPIPHIPRSPYKFPSSPLRIPGGNIYISPLKSPYKISEGLPTPTKMTPRSRILVSIGESFGTSEKFQKINQMVCNSDRVLKRSAEGSNPPKPLKKLRFDIEGSDEADGSKHLPGESKFQQKLAEMTSTRTRMQKQKMNDSMDTSNKEEK
On to B1, for which the IC50 in test [2] was determined as 9 µM.
Turning to KA[code U]RRLFG [p21 N-terminus KAURRLFG], the IC50 in test [1] came to 134 µM.
Same read-out and setting: to KA[code U]RRLIF [KAURRLIF] belongs 20 µM.
